According to PMC4996939:

B1: HA-tagged TGF-β type I receptor ALK5 [not stated] / Myc-tagged mouse Fscn1 [mouse] (parent)
chain 1: not shown
chain 2: LQCFCHLCTKDNFTCVTDGLCFVSVTETTDKVIHNSMCIAEIDLIPRDRPFVCAPSSKTGSVTTTYCCNQDHCNKIELPTTVKSSPGLGPVELAAVIAGPVCFVCISLMLMVYICHNRTVIHHRVPNEEDPSLDRPFISEGTTLKDLIYDMTTSGSGSGLPLLVQRTIARTIVLQESIGKGRFGEVWRGKWRGEEVAVKIFSSREERSWFREAEIYQTVMLRHENILGFIAADNKDNGTWTQLWLVSDYHEHGSLFDYLNRYTVTVEGMIKLALSTASGLAHLHMEIVGTQGKPAIAHRDLKSKNILVKKNGTCCIADLGLAVRHDSATDTIDIAPNHRVGTKRYMAPEVLDDSINMKHFESFKRADIYAMGLVFWEIARRCSIGGIHEDYQLPYYDLVPSDPSVEEMRKVVCEQKLRPNIPNRWQSCEALRVMAKIMRECWYANGAARLTALRIKKTLSQLSQQEGIKM
B2: HA-tagged Activin/Nodal type I receptor ALK4 [not stated] / Myc-tagged mouse Fscn1 [mouse] (parent)
chain 1: not shown
chain 2: SGPRGVQALLCACTSCLQANYTCETDGACMVSIFNLDGMEHHVRTCIPKVELVPAGKPFYCLSSEDLRNTHCCYTDYCNRIDLRVPSGHLKEPEHPSMWGPVELVGIIAGPVFLLFLIIIIVFLVINYHQRVYHNRQRLDMEDPSCEMCLSKDKTLQDLVYDLSTSGSGSGLPLFVQRTVARTIVLQEIIGKGRFGEVWRGRWRGGDVAVKIFSSREERSWFREAEIYQTVMLRHENILGFIAADNKDNGTWTQLWLVSDYHEHGSLFDYLNRYTVTIEGMIKLALSAASGLAHLHMEIVGTQGKPGIAHRDLKSKNILVKKNGMCAIADLGLAVRHDAVTDTIDIAPNQRVGTKRYMAPEVLDETINMKHFDSFKCADIYALGLVYWEIARRCNSGGVHEEYQLPYYDLVPSDPSIEEMRKVVCDQKLRPNIPNWWQSYEALRVMGKMMRECWYANGAARLTALRIKKTLSQLSVQEDVKI

Variants of: B1
Experiment: co-immunoprecipitation (IP anti-Myc, IB anti-HA) with band quantification
Conditions: HEK293 cells, 60 mm dishes, CA-ALK5-HA 2 μg, Myc-mFscn1 1.5 μg, no TGF-β1 or Activin A in the CA lane

| Variant | ratio to parent |
| --- | --- |
| chain 2 T171D | 1.87 |

Same assay, conditions: transfected cells in 60 mm dishes, ALK5 KR-HA 2 μg, Myc-mFscn1 1.5 μg

| Variant | ratio to parent |
| --- | --- |
| chain 2 K199R | 0.56 |

Variants of: B2
Experiment: as above
Conditions: HEK293 cells, 60 mm dishes, CA-ALK4-HA 2 μg, Myc-mFscn1 1.5 μg, no TGF-β1 or Activin A in the CA lane

| Variant | ratio to parent |
| --- | --- |
| chain 2 T183D | 2.34 |
